We go through one molecule from EP1832653A1.

The target in this experiment is monoclonal antibody M75 (MAb M75), secreted from the hybridoma VU-M75, ATCC HB 11128. Briefly: competition ELISA: peptide in solution against immobilized GST-MN for M75. For orientation: An ELISA detects its analyte on a solid surface through an enzyme-linked reagent.

In the case of GGSSGEDDPLGEEDLPSEEDSP [oligopeptide … (aa 51-72) [SEQ ID NO: 104]], the IC50 (as a rule, the concentration at which inhibition is half-maximal) is 1 ng/mL.
